According to paper doi:10.1101/2024.12.23.630133 (bioRxiv, 2024):

Target: the molecule itself
Test: single-molecule GFP photobleaching

B1: HCN1SM (GFP-tagged human HCN1 channel) (natural protein)
chain: MEGGGKPNSSSNSRDDGNSVFPAKASATGAGPAAAEKRLGTPPGGGGAGAKEHGNSVCFKVDGGGGGGGGGGGGEEPAGGFEDAEGPRRQYGFMQRQFTSMLQPGVNKFSLRMFGSQKAVEKEQERVKTAGFWIIHPYSDFRFYWDLIMLIMMVGNLVIIPVGITFFTEQTTTPWIIFNVASDTVFLLDLIMNFRTGTVNEDSSEIILDPKVIKMNYLKSWFVVDFISSIPVDYIFLIVEKGMDSEVYKTARALRIVRFTKILSLLRLLRLSRLIRYIHQWEEIFHMTYDLASAVVRIFNLIGMMLLLCHWDGCLQFLVPLLQDFPPDCWVSLNEMVNDSWGKQYSYALFKAMSHMLCIGYGAQAPVSMSDLWITMLSMIVGATCYAMFVGHATALIQSLDSSRRQYQEKYKQVEQYMSFHKLPADMRQKIHDYYEHRYQGKIFDEENILNELNDPLREEIVNFNCRKLVATMPLFANADPNFVTAMLSKLRFEVFQPGDYIIREGAVGKKMYFIQHGVAGVITKSSKEMKLTDGSYFGEICLLTKGRRTASVRADTYCRLYSLSVDNFNEVLEEYPMMRRAFETVAIDRLDRIGKKNSILLQKFQKDLNTGVFNNQENEILKQIVKHDREMVQAIAPINYPQMTTLNSTSSTTTPTSRMRTQSPPVYTATSLSHSNLHSPSPSTQTPQPSAILSPCSYTTAVCSPPVQSPLAARTFHYASPTASQLSLMQQQPQQQVQQSQPPQTQPQQPSPQPQTPGSSTPKNEVHKSTQALHNTNLTREVRPLSASQPSLPHEVSTLISRPHPTVGESLASIPQPVTAVPGTGLQAGGRSTVPQRVTLFRQMSSGAIPPNRGVPPAPPPPAAALPRESSSVLNTDPDAEKPRFASNL
- stoichiometry N: 4
